Results as given in IntAct's records for PubMed 25225338.

Molecular target: mare1_human MAPRE1 (UniProt Q15691)
Sequence (Q15691 whole entry): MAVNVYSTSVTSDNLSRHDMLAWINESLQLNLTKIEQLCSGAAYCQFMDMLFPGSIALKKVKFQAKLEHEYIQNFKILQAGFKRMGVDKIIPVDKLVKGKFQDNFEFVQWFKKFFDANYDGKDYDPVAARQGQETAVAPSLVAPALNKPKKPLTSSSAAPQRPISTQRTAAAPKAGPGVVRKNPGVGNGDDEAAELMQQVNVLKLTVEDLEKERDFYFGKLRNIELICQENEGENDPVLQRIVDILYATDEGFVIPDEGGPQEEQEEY

effect of a mutation on the interaction	Substance
decreasing interaction strength	Desmoplakin (Homo sapiens), P15924-2 N458Y
decreasing interaction strength	Desmoplakin (Homo sapiens), P15924-2 I533T
